Data: publication PMC4877045

Target: cleaved human TNFα (human)
Test: SEC; SEC-HPLC on an analytic TSK G3000SWXL column, PBS mobile phase, 1 ml/min, OD280; molecular weight estimated from retention time against a protein size standard; self-association (trimer)

stoichiometry N: 3
Substance: cleaved human TNFα (ligand)
